Test results: US5854388A, “Angiotensin IV peptides and receptor” (Washington State University Research Foundation, priority 1994, dated 1998)

Key:
[1] = target: T1, AT4 receptor (Bos taurus, UniProt F1N1Q8); experiment: 125I-AIV binding and competition, bovine adrenal cortical membranes; settings: read-out: 125I-AIV Binding (Ki); competition
T1 sequence (F1N1Q8 1-1022): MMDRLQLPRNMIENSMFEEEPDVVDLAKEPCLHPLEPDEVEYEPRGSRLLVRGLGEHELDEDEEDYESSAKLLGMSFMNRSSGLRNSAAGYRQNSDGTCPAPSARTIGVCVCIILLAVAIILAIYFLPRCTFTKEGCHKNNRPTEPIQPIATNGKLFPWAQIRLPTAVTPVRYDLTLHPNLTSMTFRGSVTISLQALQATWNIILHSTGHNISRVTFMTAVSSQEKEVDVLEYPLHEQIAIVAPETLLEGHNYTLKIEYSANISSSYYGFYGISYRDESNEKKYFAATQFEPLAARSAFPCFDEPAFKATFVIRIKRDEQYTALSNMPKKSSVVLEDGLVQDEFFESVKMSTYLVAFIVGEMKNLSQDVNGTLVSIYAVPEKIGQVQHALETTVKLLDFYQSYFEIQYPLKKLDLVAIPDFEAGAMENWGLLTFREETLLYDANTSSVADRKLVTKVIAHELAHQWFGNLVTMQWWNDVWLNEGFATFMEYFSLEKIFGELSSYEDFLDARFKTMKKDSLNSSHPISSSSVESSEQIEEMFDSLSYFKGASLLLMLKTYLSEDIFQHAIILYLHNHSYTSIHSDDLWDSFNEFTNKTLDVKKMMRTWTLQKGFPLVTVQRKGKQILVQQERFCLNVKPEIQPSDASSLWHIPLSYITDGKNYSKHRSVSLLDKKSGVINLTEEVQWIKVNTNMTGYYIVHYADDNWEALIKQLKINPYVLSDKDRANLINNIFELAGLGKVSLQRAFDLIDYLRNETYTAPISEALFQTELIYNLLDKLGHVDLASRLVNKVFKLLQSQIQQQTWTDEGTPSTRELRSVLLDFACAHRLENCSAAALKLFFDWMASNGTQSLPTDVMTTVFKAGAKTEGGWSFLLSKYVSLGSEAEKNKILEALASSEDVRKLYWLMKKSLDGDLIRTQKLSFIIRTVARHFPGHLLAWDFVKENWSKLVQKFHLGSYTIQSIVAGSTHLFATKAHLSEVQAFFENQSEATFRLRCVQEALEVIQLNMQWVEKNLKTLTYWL

[2] = target: T2, AT1 receptor (AII receptor) (Bos taurus, UniProt P25104); format: binding, bovine; settings: 37° C., 2 h, HPLC
T2 construct: from tissue; host or cells: bovine adrenal cortex membranes
T2 sequence (P25104 1-359): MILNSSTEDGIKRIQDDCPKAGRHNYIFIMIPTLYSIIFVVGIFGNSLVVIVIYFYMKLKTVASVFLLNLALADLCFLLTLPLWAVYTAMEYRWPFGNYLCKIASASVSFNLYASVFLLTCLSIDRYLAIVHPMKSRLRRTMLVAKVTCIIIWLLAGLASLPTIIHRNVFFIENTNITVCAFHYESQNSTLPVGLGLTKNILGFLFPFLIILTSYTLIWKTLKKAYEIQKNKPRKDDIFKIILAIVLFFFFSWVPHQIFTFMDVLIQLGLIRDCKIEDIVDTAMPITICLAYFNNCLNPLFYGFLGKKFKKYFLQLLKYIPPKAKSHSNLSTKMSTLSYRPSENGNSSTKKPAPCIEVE

[3] = target: T3, AT4 receptor (Cavia porcellus, UniProt H0VNM7); experiment: 125I-AIV binding and competition, guinea pig hippocampus membranes; settings: competition of 0.6 nM 125I-AIV
T3 sequence (H0VNM7 1-1025): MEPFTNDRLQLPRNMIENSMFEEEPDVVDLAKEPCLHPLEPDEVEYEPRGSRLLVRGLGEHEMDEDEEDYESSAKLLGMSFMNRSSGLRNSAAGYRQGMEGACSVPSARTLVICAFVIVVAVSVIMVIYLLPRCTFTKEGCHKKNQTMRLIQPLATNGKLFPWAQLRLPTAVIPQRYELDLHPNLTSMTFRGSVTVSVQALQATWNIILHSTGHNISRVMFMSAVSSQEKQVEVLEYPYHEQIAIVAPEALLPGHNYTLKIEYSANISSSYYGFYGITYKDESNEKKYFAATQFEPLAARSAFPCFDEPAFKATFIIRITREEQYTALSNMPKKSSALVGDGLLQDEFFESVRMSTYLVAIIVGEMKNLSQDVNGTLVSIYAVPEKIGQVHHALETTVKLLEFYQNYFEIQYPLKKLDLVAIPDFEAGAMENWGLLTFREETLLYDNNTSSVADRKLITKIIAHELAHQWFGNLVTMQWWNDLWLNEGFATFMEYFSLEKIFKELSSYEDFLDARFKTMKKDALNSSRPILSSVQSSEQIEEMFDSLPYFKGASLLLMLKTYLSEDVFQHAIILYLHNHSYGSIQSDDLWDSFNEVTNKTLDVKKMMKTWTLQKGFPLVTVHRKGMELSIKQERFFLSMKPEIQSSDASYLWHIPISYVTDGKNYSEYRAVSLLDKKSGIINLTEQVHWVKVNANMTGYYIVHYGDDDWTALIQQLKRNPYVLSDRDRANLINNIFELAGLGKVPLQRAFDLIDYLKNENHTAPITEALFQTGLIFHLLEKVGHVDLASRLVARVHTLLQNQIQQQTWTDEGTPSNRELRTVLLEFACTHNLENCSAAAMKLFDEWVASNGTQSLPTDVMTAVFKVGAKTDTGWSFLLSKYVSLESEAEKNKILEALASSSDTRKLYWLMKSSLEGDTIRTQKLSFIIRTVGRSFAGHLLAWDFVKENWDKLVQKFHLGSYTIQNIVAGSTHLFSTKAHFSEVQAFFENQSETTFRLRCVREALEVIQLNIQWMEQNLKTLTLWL

[4] = Stability of angiotensin peptides in binding buffer (reverse phase HPLC); format: physicochemical; settings: 4 h at 37° C.
Method: Binding studies were carried out in a buffer (below) containing an extensive cocktail of inhibitors that was designed to minimize metabolism of both the receptor and the test ligand, i.e., the buffer contained 5 mM EDTA, 0.2% BSA, […] Bestatin, 50 μM Plummer's inhibitor, and 100 μM PMSF.

[5] = tested on: rat kidney; experiment: Renal cortical blood flow (laser doppler) and arterial pressure after infusion into the renal artery; format: in vivo; settings: infusion into renal artery
[6] = in vivo; cited from earlier work

Substance: Asp1 Arg2 Val3 Tyr4 Ile5 His6 Pro7 Phe8 (DRVYIHPF) [AII]
- Ki [1]: > 1000 nM
- overall hydrolysis under conditions of the assay [2]: less than 2%
- Ki [3]: > 1000 nM
- hydrolysis in binding buffer [4]: less than 10%
- effect on renal blood flow (in words) [5]: dramatic decrease in renal blood flow
- half-lives [6]: 4.4 min
